# Laboratory results from patent US20070212355A1 (priority 2005, published 2007).
# How the values were obtained:
# CD-1 mice [1] = test: Gastrointestinal transit in post-operative inflammatory ileus model; type: in vivo; details: 2 mg/kg one hour before surgery; transit 48 hr after operation, 45 minutes; FIG. 5
# Experimental: On the day of study, upper gastrointestinal transit was measured using the FITC-dextran method. This method provides both, a measure of gastrointestinal transit and a readout of the pattern of distribution of the test meal along the gastrointestinal tract. Mice were fed a test meal of […] of FITC-dextran solution (5 mg/ml of 70,000 molecular weight dextran conjugated to fluorescein-isothiocyanate in 0.5% methylcellulose/deionized water) administered intragastrically by an 18 gauge curved feeding tube. Following oral administration of the FITC-dextran test meal, mice were returned to their home cages. It was shown that a 30 min test period was the optimum duration for detecting accelerated transit, while a 45 min test period was optimum for detecting delayed transit. Following the appropriate test period, mice were sacrificed by carbon dioxide exposure. The entire gastrointestinal tract from the lower esophageal sphincter to the terminal colon was removed. […] Aliquots of the cleared supernatant were read in duplicate on a 96-well fluorescence plate reader to quantify the magnitude of the fluorescent signal in each segment of bowel. […] The GC is calculated in the lower panel for statistical comparison. […]
# All mice received an oral test meal of FITC-dextran 48 hr after the operation. Gastrointestinal transit was determined 45 minutes after oral feeding. […]
# CD-1 mice [2] = test: Myeloperoxidase histochemistry of intestinal muscularis, post-operative inflammatory ileus; type: in vivo; details: 2 mg/kg one hour before surgery; tissue 48 hr after operation; FIG. 6, 7
# Experimental: Myeloperoxidase histochemistry was performed on tissues harvested from the mid-small bowel of the mice 48 hr after the operation.
# Briefly, segments of mid-small bowel were collected from the centrifuge tubes described in Example 12. Whole mounts of the muscle layer were prepared by pinning the tissue flat in a Sylgard® lined Petri dish and stretching the tissue to 2 times its length and 1.5 times its width. The mucosa was removed by fine dissection. The muscularis whole mounts were then fixed with 100% ethanol for 1 hr, washed 3 times with PBS, and incubated for 20 min in PBS containing 0.1% hydrogen peroxide and 1 mg/ml Hanker-Yates reagent. Following a second wash with PBS, the whole mounts were mounted on glass slides, cover-slipped, and viewed on an optical microscope. Myeloperoxidase containing leukocytes were counted in 6 to 8 adjacent 200× optical fields of view and the mean cell counts were calculated and recorded.
molecule,measurement,setting,value
"SEQ ID NO: 80: human A2G-GLP2 peptide in murine IgG2a scaffold (protein, Human A2G-GLP2 peptide in murine IgG2a scaffold) HGDGSFSDEMNTILDNLAARDFINWLIQTKITDGSGGGSGTTVTVSAEPRGPTIKPCPPCKCPAPNAAGGPSVFIFPPKIKDVLMISLSPIVTCVVVDVSEDDPDVQISWFVNNVEVHTAQTQTHREDYNSTLRVVSALPIQHQDWMSGKEFKCKVNNKDLPAPIERTISKPKGSVRAPQVYVLPPPEEEMTKKQVTLTCMVTDFMPEDIYVEWTNNGKTELNYKNTEPVLDSDGSYFMYSKLRVEKKNWVERNSYSCSVVHEGLHNHHTTKSFSRTPGK",effect on surgically induced delay in gastrointestinal transit,CD-1 mice [1],significant improvement in transit
same,number of MPO-positive leukocytes infiltrating small intestinal muscle layer,CD-1 mice [2],significantly reduced the number of infiltrating cells
